Consider one substance from article PMC10445738.

Common to all, as to test: AP-MS
Test [1] addresses HOIL-1-interacting protein (HOIP), endogenous (UniProt Q96EP0). Particulars: FLAG-tagged OTULIN bait expressed in HEK293 cells; endogenous prey; parent: est. 27; read off a plot.
For the next test, the target named is SLC9A3R2, endogenous (UniProt Q15599). The conditions noted are these: FLAG-tagged OTULIN bait expressed in HEK293 cells; endogenous prey; read off a plot.
A further test deals with SNX27, endogenous (UniProt Q96L92). Particulars: FLAG-tagged OTULIN bait expressed in HEK293 cells; endogenous prey; parent: est. 62; read off a plot.
Test [2] concerns the target scribble (SCRIB), endogenous (UniProt Q14160). The conditions noted are these: FLAG-tagged OTULIN bait expressed in HEK293 cells; endogenous prey; parent: est. 110; read off a plot.
Sequence of UniProt Q14160 (Q14160 whole entry): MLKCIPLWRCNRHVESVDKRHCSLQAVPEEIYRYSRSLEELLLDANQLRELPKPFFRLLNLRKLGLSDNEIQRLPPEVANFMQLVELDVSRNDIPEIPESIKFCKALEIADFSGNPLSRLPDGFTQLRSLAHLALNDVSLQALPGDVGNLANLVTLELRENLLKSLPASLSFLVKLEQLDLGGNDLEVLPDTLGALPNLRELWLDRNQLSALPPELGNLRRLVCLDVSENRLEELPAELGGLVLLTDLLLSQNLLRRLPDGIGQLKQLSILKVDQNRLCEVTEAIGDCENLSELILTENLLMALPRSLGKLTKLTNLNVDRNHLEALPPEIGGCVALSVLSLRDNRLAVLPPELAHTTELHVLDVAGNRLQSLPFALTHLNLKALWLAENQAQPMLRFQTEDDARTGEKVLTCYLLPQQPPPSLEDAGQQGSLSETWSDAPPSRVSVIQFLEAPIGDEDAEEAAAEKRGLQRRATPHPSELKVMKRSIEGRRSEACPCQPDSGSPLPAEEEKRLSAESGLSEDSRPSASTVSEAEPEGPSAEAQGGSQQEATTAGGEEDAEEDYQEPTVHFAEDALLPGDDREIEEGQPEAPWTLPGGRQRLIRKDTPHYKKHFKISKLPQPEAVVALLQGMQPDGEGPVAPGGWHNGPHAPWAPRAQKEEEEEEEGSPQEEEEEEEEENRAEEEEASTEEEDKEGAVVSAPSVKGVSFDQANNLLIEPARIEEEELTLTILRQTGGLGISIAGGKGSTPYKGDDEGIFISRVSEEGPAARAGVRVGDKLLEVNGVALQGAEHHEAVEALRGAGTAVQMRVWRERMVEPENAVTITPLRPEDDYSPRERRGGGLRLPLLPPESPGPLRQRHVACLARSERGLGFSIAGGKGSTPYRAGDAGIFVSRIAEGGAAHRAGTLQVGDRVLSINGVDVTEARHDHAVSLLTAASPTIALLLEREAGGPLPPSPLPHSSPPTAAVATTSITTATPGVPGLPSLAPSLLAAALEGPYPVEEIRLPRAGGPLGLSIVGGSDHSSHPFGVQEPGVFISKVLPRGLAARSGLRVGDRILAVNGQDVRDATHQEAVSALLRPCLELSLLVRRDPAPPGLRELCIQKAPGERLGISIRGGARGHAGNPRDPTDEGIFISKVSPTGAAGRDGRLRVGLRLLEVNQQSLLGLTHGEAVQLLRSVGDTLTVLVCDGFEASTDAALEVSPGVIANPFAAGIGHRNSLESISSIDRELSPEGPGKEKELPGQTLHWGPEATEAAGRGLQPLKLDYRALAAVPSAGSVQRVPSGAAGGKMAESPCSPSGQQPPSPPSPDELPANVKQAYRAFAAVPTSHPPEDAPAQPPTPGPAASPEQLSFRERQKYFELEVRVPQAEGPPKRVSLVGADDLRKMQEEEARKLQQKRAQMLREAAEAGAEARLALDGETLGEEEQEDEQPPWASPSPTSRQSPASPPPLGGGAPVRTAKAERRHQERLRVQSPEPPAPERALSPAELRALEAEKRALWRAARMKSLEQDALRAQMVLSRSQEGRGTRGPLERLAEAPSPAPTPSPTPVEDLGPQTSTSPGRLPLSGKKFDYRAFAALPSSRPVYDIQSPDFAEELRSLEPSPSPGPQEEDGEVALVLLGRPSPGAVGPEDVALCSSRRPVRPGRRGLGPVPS

Sequence of UniProt Q96EP0 (Q96EP0 whole entry): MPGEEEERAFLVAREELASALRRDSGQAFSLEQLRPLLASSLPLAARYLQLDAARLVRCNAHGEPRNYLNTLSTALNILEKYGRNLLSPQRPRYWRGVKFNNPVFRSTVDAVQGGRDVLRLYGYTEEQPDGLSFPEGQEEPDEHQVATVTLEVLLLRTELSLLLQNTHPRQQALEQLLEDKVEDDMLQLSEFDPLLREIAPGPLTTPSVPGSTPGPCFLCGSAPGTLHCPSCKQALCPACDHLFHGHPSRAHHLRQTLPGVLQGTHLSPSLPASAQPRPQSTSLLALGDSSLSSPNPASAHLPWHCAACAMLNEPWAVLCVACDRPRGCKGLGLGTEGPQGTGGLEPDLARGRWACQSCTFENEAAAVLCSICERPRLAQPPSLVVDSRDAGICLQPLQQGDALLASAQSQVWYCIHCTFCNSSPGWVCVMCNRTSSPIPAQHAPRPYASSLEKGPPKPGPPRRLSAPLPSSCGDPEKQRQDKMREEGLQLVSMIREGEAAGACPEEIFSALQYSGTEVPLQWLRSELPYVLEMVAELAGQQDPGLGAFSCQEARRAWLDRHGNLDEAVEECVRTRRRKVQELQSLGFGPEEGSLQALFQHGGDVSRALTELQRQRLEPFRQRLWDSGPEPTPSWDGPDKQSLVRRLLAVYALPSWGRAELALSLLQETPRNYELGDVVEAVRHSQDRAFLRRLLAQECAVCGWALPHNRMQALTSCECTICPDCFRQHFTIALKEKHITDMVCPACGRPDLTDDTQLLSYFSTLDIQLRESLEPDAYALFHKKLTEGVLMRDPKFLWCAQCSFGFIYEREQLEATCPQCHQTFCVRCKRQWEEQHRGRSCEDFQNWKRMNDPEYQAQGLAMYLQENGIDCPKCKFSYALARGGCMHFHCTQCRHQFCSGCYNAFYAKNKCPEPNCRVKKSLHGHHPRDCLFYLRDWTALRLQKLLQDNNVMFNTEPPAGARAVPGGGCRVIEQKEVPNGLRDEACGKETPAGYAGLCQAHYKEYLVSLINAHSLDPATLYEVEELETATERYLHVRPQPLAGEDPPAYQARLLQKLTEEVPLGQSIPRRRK
Sequence of UniProt Q15599 (Q15599 whole entry): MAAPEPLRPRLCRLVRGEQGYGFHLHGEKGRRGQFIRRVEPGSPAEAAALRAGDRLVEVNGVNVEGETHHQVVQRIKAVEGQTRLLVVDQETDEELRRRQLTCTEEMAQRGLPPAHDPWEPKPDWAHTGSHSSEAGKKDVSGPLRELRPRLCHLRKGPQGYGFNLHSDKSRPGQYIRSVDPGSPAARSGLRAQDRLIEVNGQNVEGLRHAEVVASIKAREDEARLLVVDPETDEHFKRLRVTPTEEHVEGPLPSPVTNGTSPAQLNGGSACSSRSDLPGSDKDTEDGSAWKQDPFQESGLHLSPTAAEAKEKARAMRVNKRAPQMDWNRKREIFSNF

As to “FLAG-tagged full-length OTULIN (WT) (from UniProt Q96BN8) ΔPBM: C-terminal ETSL to AAAA”, the response (spectral counts) in test [1] was determined as 23; with SLC9A3R2, endogenous, 0; with SNX27, endogenous, 0; in test [2], 0.
